Experimental data as given in paper PMC9916714, “NMR Analysis Suggests Synergy between the RRM2 and the Carboxy-Terminal Segment of Human La Protein in the Recognition and Interaction with HCV IRES”.

What was measured:
Test in all cases: ITC; 50 mM KPi pH 7, 25 C; 50 mM KPi pH 7; ITC at 25 C (50 uM protein in cell, 500 uM RNA in syringe); NMR at 298 K, 0.1 mM protein, 90% H2O/10% D2O
Details in all cases: protein: recombinant; tags: IMAC tag (pET20b+; tag not specified)
La RRM1-RRM2-Cter = biological target: T1, La RRM1-RRM2-Cter (Homo sapiens, UniProt P05455 105-408)
T1 sequence: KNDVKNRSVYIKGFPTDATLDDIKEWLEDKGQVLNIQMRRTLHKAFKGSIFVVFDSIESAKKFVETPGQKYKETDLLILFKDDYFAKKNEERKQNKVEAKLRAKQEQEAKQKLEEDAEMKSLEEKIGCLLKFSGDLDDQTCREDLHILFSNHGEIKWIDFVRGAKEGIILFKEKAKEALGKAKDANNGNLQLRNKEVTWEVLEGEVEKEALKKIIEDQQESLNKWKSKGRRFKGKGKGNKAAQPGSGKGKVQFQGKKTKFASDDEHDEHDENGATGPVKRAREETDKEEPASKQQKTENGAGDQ

La RRM2-SBM = biological target: T2, La RRM2-SBM (Homo sapiens, UniProt P05455 225-359)
T2 sequence: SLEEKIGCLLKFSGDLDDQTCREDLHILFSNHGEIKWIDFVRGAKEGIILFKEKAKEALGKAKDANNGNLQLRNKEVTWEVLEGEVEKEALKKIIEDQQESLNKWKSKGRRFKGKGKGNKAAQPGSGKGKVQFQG

La RRM1-RRM2-SBM = biological target: T3, La RRM1-RRM2-SBM (Homo sapiens, UniProt P05455 105-359)
T3 sequence: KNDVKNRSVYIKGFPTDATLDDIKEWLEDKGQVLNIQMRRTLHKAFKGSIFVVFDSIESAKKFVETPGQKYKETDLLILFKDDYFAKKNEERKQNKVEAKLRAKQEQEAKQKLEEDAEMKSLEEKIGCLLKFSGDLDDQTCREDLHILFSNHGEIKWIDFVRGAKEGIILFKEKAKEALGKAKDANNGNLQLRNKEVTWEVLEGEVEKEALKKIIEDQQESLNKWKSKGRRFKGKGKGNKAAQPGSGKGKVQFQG

La RRM2-Cter = biological target: T4, La RRM2-Cter (Homo sapiens, UniProt P05455 225-408)
T4 sequence: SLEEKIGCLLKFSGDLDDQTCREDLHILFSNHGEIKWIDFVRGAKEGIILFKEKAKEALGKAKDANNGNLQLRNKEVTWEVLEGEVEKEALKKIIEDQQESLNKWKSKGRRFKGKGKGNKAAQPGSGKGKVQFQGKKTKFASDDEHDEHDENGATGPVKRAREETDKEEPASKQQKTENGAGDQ

AGACCGUGCACCAUGAGCACGAAUCCA (structured_RNA) [HCV-IRES domain IV]
Kd (La RRM1-RRM2-Cter): 9.76 ± 1.1 µM | Kd (La RRM2-SBM): 28.2 ± 1.21 µM | Kd (La RRM1-RRM2-SBM): 10.3 ± 2.04 µM | Kd (La RRM2-Cter): 15.3 ± 1.49 µM
